Assay results as given in the supplement of paper PMC12764529.
± gives the half width of the 95% confidence interval.

Columns and labels:
[1] = folding stability dG unfold from trypsin proteolysis; higher = more stable
Procedure, shortened: (§1)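 Designed mini-proteins with no cysteine and under 80 residues were kept only if AlphaFold2 dimer inter-PAE was above 15. In a PA-tagged cDNA display construct, they were digested with trypsin and chymotrypsin and then sequenced. K50 was inferred by Bayesian fitting of counts, and unfolding free energy was derived per protease or combined against a sequence-predicted unfolded-state K50 and a shared folded-state K50.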

[2] = folding stability dG unfold from chymotrypsin proteolysis; higher = more stable
Procedure, shortened: as §1

[3] = folding stability dG unfold (combined trypsin and chymotrypsin); higher = more stable
Procedure, shortened: as §1

Sequence | folding stability dG unfold [1] [kcal/mol] | folding stability dG unfold [2] [kcal/mol] | folding stability dG unfold [3] [kcal/mol]
SAGGSAGGSAKVKIVIKNENGEEFEIEMSEEELKKKLKPGDKVKIKIEKVNGKLKITIEKESAGGSAGGSAG [r3_86_TrROS_Hall] | 1.17 ± 0.12 | 2.11 ± 0.16 | 2.02 ± 0.28
SAGGSAGGSAKYILITAPKDNEEKVLEIAEELEKKYGVKLHKVERLPDGTVKALVEIFAPEKSAGGSAGGSA [r18_351_TrMRF] | 0.057 ± 0.073 | 0.674 ± 0.17 | 0.438 ± 0.14
SAGGSAGGSAKYITIFFWGSVEEALKSIPIPPGFKVEIDNIHRNPDGWMWVMITIEIPPNMKSAGGSAGGSA [r18_510_TrROS] | 2.68 ± 0.088 | 4.36 ± 0.12 | 4.28 ± 0.22
SAGGSAGGSALDDFKIEEVQYDPDGNTIRFIFKFPGQVWILRIRMPKNGKMEIEWIPADDISAGGSAGGSAG [r3_167_TrROS] | 3.96 ± 0.21 | 4.36 ± 0.23 | 4.36 ± 0.18
SAGGSAGGSALEIPFEVVDEKDFLLEGDYIVRVAELKNGLRALAIYDPKTGKVLVIVSPGGSAGGSAGGSAG [r3_438_TrMRF] | 1.92 ± 0.15 | 2.07 ± 0.057 | 2.17 ± 0.17
SAGGSAGGSALKPGEPITIIFLFKEPNGRPYIMVIEIEVNPDGGIKIKGMEMITLEDLDKISAGGSAGGSAG [r3_212_TrROS] | 2.97 ± 0.21 | 4.54 ± 0.19 | 4.43 ± 0.25
SAGGSAGGSALPEAEVLEVRFSPDGRRVDAVLRLDGELLVLRIDFPPDGTARIELYPAEDISAGGSAGGSAG [r3_167_TrMRF] | 1.05 ± 0.065 | 2.43 ± 0.068 | 2.07 ± 0.13
SAGGSAGGSAMEILSKEIIPNNDLIIIDIKVKKKNKEYIYKLIIKGDKIIKISEIEIDDAPSAGGSAGGSAG [r3_48_TrMRF] | 1.37 ± 0.13 | 2.5 ± 0.081 | 2.15 ± 0.26
SAGGSAGGSAMIEISSYTLPNGELVVEVTIPDPNSDKTTTLRGKYSSLEEAREEAEKLYLQSAGGSAGGSAG [r3_174_JUSTAS] | 1.52 ± 0.051 | 1.84 ± 0.12 | 1.69 ± 0.12
SAGGSAGGSAMITTYDPKTGLVYELVPDPVPGVGVERLVVRVVTVEEFPDAIVRKVEVRPESAGGSAGGSAG [r3_409_JUSTAS] | -0.211 ± 0.22 | 1.01 ± 0.074 | 0.67 ± 0.14
SAGGSAGGSAMIVKEFVTYDPSTGTRTRTTVTLELYDSPEGGAVVVLEEEVDPVGPLPPLESAGGSAGGSAG [r3_397_JUSTAS] | 0.704 ± 0.062 | 0.000665 ± 0.17 | 0.323 ± 0.12
SAGGSAGGSAMKIEIEVDPKTNVIYIRVNGLVYRFTKSEDGYIYIEVYDKNGKLIETFRLKLSAGGSAGGSA [r18_333_TrROS_Hall] | 3.52 ± 0.13 | 4.83 ± 0.1 | 4.4 ± 0.18
SAGGSAGGSAMKILSVTEEVLPNGTRVVRVTVKLPTPKTREIVVSPEVVEAGRLDEVVEELLSAGGSAGGSA [r18_129_JUSTAS] | 1.38 ± 0.033 | 1.82 ± 0.031 | 1.66 ± 0.062
SAGGSAGGSAMKLEVFPVPDGQIAVFEDADGNIRVIGVPEPNLSISDIAKIALDLGADSVELSAGGSAGGSA [r18_83_TrMRF] | 0.451 ± 0.053 | -0.45 ± 0.21 | 0.155 ± 0.16
SAGGSAGGSAMKPVPFEVLSVSYPVLPNGTRIRLVEIKFPETGEVKWIELSPDDPVIKALLSAGGSAGGSAG [r3_57_JUSTAS] | 2.27 ± 0.029 | 1.899 ± 0.011 | 2.06 ± 0.086
SAGGSAGGSAMKTFTKTFSSPEEAERAAEEIKEKLEKEGKKVKITFEKPETDTYIVTITIESAGGSAGGSAG [r3_211_JUSTAS] | 3.44 ± 0.16 | 3.93 ± 0.12 | 3.82 ± 0.19
SAGGSAGGSAMKTLVIEGLSLEEIEELAKEIPGKTVRIVFKDGSVITIYPDGKIEIEPLPESAGGSAGGSAG [r3_269_TrROS_Hall] | 1.75 ± 0.059 | 2.64 ± 0.031 | 2.37 ± 0.054
SAGGSAGGSAMKTSSGTVSFPDSTVKLSYENFGDGSVKKSVVEVVSRPPPPPVPPSNPHYLQSAGGSAGGSA [r18_176_JUSTAS] | 0.667 ± 0.12 | 0.567 ± 0.22 | 0.702 ± 0.39
SAGGSAGGSAMKVPLENVENPKKFPGTGLEIYTFTDKETGKKKIVLVEKPPNKGKKITVIESAGGSAGGSAG [r3_491_JUSTAS] | 0.0339 ± 0.12 | -0.146 ± 0.28 | 0.0523 ± 0.14
SAGGSAGGSAMKVRVKIKITRGSKEYEEEFILPEEEIEKLKEEIPEDYEVEIVDKEPLVLKSAGGSAGGSAG [r3_195_JUSTAS] | 0.129 ± 0.16 | 0.771 ± 0.16 | 0.46 ± 0.27
SAGGSAGGSAMKVSTTPVTLPNGESATLETLPDGTKVLKVGDKYIVVYPSGEVKEVPLEELLSAGGSAGGSA [r18_379_JUSTAS] | 1.43 ± 0.06 | 1.76 ± 0.046 | 1.59 ± 0.12

Sequence | folding stability dG unfold [1] [kcal/mol] | folding stability dG unfold [2] [kcal/mol] | folding stability dG unfold [3] [kcal/mol]
SAGGSAGGSAMKYYVTITFTDPNNGNTTTEIKEVTTEEEVEKVVEELAPSSYASVKVSIKPKSAGGSAGGSA [r18_258_JUSTAS] | 0.304 ± 0.059 | 1.16 ± 0.28 | 0.892 ± 0.2
SAGGSAGGSAMLVIRVVTEDGEEREIEIPEGEELTLEEILAALRTPDGREVPIERVEIFPASAGGSAGGSAG [r3_465_TrROS_Hall] | 2.04 ± 0.046 | 1.75 ± 0.029 | 1.84 ± 0.11
SAGGSAGGSAMPEPVLIVVEVESLEEAKKLAEELAVEGVKVEVDPESGLVKIEIEKESLLESAGGSAGGSAG [r3_186_TrMRF] | 1.03 ± 0.092 | 1.23 ± 0.08 | 1.12 ± 0.11
SAGGSAGGSAMPGKTYRVRIRLYNEETGELVEERELEVETLDELKEAAEKEGWKIVEIEVESAGGSAGGSAG [r3_423_TrROS_Hall] | 3.14 ± 0.14 | 3.49 ± 0.11 | 3.36 ± 0.19
SAGGSAGGSAMPGQKVRLTDELKKAGLEIEEAEVVEVDGKLYIRVNGKIIEIDADAIEEIEPSAGGSAGGSA [r18_445_TrROS_Hall] | 0.366 ± 0.13 | 1.43 ± 0.037 | 1.11 ± 0.1
SAGGSAGGSAMPKVTIKITVYNAETGELRTVTLTLPEEDMSLEEIAAALPPGWRIVKVELLSAGGSAGGSAG [r3_80_TrROS_Hall] | 3.46 ± 0.077 | 4.65 ± 0.074 | 4.34 ± 0.075
SAGGSAGGSAMPLEKVIKNLTSSGSVESLKEKLAKEYGVEKVEVTKDPNSDTYSAKVFLKKPSAGGSAGGSA [r18_275_JUSTAS] | -0.147 ± 0.18 | -0.0178 ± 0.31 | 0.131 ± 0.15
SAGGSAGGSAMPPDAKPVRTETDPATGTTTEYILYPDSDTTIRKTHLPDGSVQVEEFSVSKTSAGGSAGGSA [r18_521_JUSTAS] | -0.743 ± 0.15 | -0.491 ± 0.17 | -0.491 ± 0.29
SAGGSAGGSAMPPLISTTPILGEEPGKRLVREIVTLPDGSLIELTYDEDGNVIESKKYIVGKSAGGSAGGSA [r18_467_JUSTAS] | 0.132 ± 0.041 | 1.22 ± 0.037 | 0.94 ± 0.049
SAGGSAGGSAMPTYDNPDSLSIEEVKEKVAKEAKEKYPGKSNITVPVKFSDGTEYTVTIKIESAGGSAGGSA [r18_449_JUSTAS] | -0.288 ± 0.05 | -0.771 ± 0.21 | -0.405 ± 0.21
SAGGSAGGSAMRELVKRAAKNGNPGQKVMIRPPDKRYFPITVEGNKIEPKDLPPGWEVHVISAGGSAGGSAG [r3_244_TrROS] | -0.427 ± 0.39 | -0.443 ± 0.3 | -0.37 ± 0.28
SAGGSAGGSAMRLEIELENGLKIEIELEVNEDGELKMKIKIEPLPPVPEVVVTKVVKLEEESAGGSAGGSAG [r3_15_TrROS_Hall] | 1.72 ± 0.29 | 1.69 ± 0.12 | 1.98 ± 0.39
SAGGSAGGSAMSEEERRRRAEEERRKKPPVFKITEITVERDEDGNLRVTFRLEDGSTVTIELSAGGSAGGSA [r18_423_TrROS_Hall] | 1.89 ± 0.039 | 3.33 ± 0.088 | 2.91 ± 0.14
SAGGSAGGSAMSPTEAERARPVPVVKTETTVTLDPSGYRVETVTYDGGVTETVVTPLPPELASAGGSAGGSA [r18_192_JUSTAS] | 0.0994 ± 0.04 | -0.143 ± 0.11 | 0.0301 ± 0.085
SAGGSAGGSAMSVTATVPEKPVTLTYIPPNTVTKTVIDPSTGTTTTTEVNLPPGVVPASLLLSAGGSAGGSA [r18_59_JUSTAS] | 0.313 ± 0.05 | -0.191 ± 0.13 | 0.14 ± 0.045
SAGGSAGGSAMSVVVKYTVLLTDPVTGKTTVVPVTATLPVSDGTAKTIEEIVAEHPNYEILESAGGSAGGSA [r18_267_JUSTAS] | 1.81 ± 0.068 | 1.3 ± 0.026 | 1.56 ± 0.039
SAGGSAGGSAMTAREIADELVKEGKEVKVTVRRPGEEKEITVTKEGEPLPPGAEIVKIEEVSAGGSAGGSAG [r3_421_TrROS_Hall] | -0.678 ± 0.19 | 0.187 ± 0.08 | 0.0343 ± 0.14
SAGGSAGGSAMTITVEVPPSVPAEEAAERVAERLRAEFPVPDIRVTVETTPDGTVTVTITEASAGGSAGGSA [r18_1_JUSTAS] | -0.291 ± 0.16 | 0.436 ± 0.09 | 0.275 ± 0.1
SAGGSAGGSAMTLNVPDAGGKTYTVEVLSYDPVKNTWTLLNPSTSETITITAEEAAKIKAAASAGGSAGGSA [r18_161_JUSTAS] | 2.01 ± 0.072 | 2.01 ± 0.066 | 2.1 ± 0.11
SAGGSAGGSAMTLRVKITLPDGRELELEIEAETEEEALAALKELIKKLFPEVKEVKIEVEPESAGGSAGGSA [r18_434_TrROS_Hall] | 3.91 ± 0.3 | 4.85 ± 0.38 | 4.84 ± 0.4
SAGGSAGGSAMTPQVIKVTLYKPATGDVRTVVVLDPVPNTSLDEVAAALPSDYVVAKVEVGSAGGSAGGSAG [r3_80_TrMRF] | 0.166 ± 0.079 | -0.308 ± 0.33 | -0.0325 ± 0.14
